Legend:
human IGF-1R(1-903)-Fc [1] = target: T1, human IGF-1R(1-903)-Fc (human, UniProt P08069 31-933); assay: blocking ELISA, competitor 640 nM IGF-2
T1 construct: Made by Biogen Idec; also called hIGF-1R-Fc; IGF-1R-Fc

human IGF-1R(1-903)-Fc [2] = target: T1, human IGF-1R(1-903)-Fc; assay: blocking ELISA, competitor 320 nM IGF-1
hIGF-1R-Fc mutant SD207 = target: T2, hIGF-1R-Fc mutant SD207 (human, UniProt P08069 31-933); assay: KD grade of mutant hIGF-1R-Fc; S = binding to antibody was ablated by mutation
T2 construct: build as m36 with the substitution; also called G265Y

hIGF-1R-Fc mutant SD203 = target: T3, hIGF-1R-Fc mutant SD203 (human, UniProt P08069 31-933); assay: as above
T3 construct: build as m36 with the substitution; also called N254A
T3 sequence (P08069 other isoform, or with tags, fused parts or gaps mutant limits assumed): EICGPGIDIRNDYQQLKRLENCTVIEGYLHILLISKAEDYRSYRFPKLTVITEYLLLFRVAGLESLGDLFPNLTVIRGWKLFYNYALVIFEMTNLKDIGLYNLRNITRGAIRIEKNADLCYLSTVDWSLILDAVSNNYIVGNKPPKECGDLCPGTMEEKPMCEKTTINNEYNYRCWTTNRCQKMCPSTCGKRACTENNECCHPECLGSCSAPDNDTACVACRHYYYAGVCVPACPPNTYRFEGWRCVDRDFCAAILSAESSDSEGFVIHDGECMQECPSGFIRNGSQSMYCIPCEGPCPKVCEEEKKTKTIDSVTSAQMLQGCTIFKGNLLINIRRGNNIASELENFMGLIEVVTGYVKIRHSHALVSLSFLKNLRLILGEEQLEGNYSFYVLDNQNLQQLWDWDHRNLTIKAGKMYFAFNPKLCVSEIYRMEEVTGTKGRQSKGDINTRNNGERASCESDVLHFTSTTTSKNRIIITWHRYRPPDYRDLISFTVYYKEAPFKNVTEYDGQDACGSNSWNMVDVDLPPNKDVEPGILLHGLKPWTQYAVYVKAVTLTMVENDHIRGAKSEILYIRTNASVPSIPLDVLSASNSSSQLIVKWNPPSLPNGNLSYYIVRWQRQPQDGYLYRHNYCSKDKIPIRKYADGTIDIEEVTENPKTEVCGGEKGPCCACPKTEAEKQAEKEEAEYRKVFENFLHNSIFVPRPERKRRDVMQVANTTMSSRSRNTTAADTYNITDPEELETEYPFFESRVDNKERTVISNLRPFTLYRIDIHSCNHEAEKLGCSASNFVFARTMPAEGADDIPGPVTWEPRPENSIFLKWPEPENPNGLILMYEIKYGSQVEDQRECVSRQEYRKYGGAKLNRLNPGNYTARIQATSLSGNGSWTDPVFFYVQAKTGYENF

T1 sequence (P08069 31-933): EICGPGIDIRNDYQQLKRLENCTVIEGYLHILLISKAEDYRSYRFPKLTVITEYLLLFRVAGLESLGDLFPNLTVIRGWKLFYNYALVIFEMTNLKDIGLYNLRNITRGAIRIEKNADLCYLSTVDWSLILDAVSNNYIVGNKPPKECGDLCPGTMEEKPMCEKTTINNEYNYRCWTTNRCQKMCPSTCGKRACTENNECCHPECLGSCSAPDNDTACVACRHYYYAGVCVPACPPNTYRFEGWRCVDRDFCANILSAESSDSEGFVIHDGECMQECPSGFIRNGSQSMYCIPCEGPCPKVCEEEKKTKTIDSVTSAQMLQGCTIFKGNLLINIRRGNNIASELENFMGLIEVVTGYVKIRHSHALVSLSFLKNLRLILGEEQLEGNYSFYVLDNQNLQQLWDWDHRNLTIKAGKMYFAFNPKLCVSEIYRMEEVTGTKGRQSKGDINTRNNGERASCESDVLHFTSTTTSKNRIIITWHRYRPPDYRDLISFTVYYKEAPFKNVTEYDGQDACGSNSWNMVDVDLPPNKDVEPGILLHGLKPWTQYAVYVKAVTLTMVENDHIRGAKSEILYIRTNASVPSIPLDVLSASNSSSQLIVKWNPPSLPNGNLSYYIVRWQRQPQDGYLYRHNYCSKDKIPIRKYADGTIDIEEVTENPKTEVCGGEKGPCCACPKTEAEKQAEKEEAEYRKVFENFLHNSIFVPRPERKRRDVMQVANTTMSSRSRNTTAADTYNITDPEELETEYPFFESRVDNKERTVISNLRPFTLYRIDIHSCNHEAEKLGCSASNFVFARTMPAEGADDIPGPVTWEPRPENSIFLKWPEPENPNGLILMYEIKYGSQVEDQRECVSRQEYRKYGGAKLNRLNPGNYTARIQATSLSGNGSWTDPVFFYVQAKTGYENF
T2 sequence (P08069 other isoform, or with tags, fused parts or gaps mutant limits assumed): as the sequence (P08069 31-933) above, with G265Y counted along it

- % IGF-2 inhibition upon antibody saturation (human IGF-1R(1-903)-Fc [1]): ~50%
- % IGF-1 inhibition upon antibody saturation (human IGF-1R(1-903)-Fc [2]): 38%
- binding result (hIGF-1R-Fc mutant SD207): no binding
- binding result (hIGF-1R-Fc mutant SD203): no binding
B1: P1E2 (chimeric antibody) (antibody, V domains shown)
VH: QVQLQQPGAELVKPGASVKLSCKASGYTFTSYWMHWVKQRPGQGLEWIGEINPTYGRSNYNEKFKSKATLTVDKSSSTAYMQLSSLTSEDSAVYYCARLVRLRYFDVWGAGTTVTVSS
VL: DIVMTQAAFSNPVTLGTSASISCRSSKSLLHSNGITYLYWYLQKPGQSPQLLIYQMSNLASGVPDRFSSSGSGTDFTLRISRVEAEDVGVYYCAQNLELPYTFGGGTKLEIK
